From publication PMC2880568

Biological target: T1, EloBC (elongin B - elongin C heterodimer), Q15370
T1 chain 1: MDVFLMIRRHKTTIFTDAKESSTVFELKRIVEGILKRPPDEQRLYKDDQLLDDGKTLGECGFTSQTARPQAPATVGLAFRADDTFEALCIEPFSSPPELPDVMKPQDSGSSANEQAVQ
T1 chain 2: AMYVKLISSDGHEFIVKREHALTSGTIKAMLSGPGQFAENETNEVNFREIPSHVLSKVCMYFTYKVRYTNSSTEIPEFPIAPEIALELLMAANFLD
Assay: ITC

Binder: HNKVGSLQYLALAAL (domain or fragment, modifications not checked) [Vif BC-box protein]
- Kd: 2200 nM
